From patent US20030186853A1, “Novel corticotropin-releasing hormone analogs” (The Regents of the University of California, Office of …, published 2003) come the findings set out here.

Read-outs that look alike come from different tables or passages of the source. Non-standard residues stand in square brackets, D forms with d. No end group written: not given here.

Assay [1] addresses T1, CRH1 receptor (mouse, UniProt P35347).
Assay [2] deals with T1, CRH1 receptor. Put plainly: cell-based or functional assay.

Turning to “acetyl-cyclo(30-33)[D-Phe^12, Nle^18, D-Glu^20, Nle^21, Glu^30, D-Ala^32]-urotensin I(4-41) (peptide)”, the EC50, inhibition of proliferation of Cloudman melanoma cells (cell count) in assay [1] turned out to be 0.36 picomolar.

Consider DNPSLSIDLTFHLLRTLLELARTQSQRERAEQNRIIFDSV-NH2 (ligand) [Urocortin (human)], for which the “EC50, inhibition of proliferation of Cloudman melanoma cells (cell count)” value (shortened to “EC50, inhibition”) in assay [2] turned out to be 9.5 picomolar.

For the molecule SEEPPISLDLTFHLLREVL[dE]MARAEQLAQQAHSNRKLMEII-NH2 [[D-Glu^20]-CRH], in assay [2], the “EC50, inhibition” value was 16 picomolar.

SEEP[dP]ISLDLTFHLLREVLEMARAEQLAQQAHSNRKLMEII-NH2 [[D-Pro^5]-CRH]: the “EC50, inhibition” value in assay [2] is 82 picomolar.

As to SEEPPISLDLTFHLLREVLEMARAEQLAQQAHSNRKLMEII-NH2 (ligand) [Corticotropin-releasing hormone (CRH), human/rat], in assay [2], the “EC50, inhibition” value is 8.6 picomolar.
